Here are results for one substance from PMC7458460.

What is called Kd is the concentration at which binding is half-saturated.

The assay deals with CN391 (CNA_(1–391)/CNB_(1–170)) (UniProt Q08209). As to the kind of experiment: ITC.
CN391 (CNA_(1–391)/CNB_(1–170)), sequence (Q08209 1-391, chain 1 of 2): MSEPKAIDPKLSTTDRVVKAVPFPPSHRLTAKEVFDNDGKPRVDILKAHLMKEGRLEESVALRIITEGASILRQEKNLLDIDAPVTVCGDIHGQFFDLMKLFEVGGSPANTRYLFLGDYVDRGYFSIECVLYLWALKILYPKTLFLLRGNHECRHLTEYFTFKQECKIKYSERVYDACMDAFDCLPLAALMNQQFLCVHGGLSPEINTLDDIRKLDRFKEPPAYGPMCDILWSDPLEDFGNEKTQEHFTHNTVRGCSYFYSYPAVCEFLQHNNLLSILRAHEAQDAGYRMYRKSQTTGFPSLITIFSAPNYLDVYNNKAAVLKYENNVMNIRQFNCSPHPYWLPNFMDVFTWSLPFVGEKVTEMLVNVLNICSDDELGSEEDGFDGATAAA
CN391 (CNA_(1–391)/CNB_(1–170)), sequence (P63098 whole entry, chain 2 of 2, further chain): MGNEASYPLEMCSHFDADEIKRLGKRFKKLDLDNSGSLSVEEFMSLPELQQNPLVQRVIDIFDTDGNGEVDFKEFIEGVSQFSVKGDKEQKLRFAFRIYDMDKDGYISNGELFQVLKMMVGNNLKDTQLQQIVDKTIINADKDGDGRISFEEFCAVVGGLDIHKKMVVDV

RCAN1_(core) WT (residues 128 to 164), sequence (P53805 183-219): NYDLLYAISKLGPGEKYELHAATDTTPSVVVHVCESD

In the case of “RCAN1_(core) WT (residues 128 to 164) (from UniProt P53805-2 128-164) (domain or fragment)”, the Kd came out at 161 nM and the dH is -18.8 kcal/mol.
